Key:
NE2 mutant 601LI = biological target: T1, NE2 mutant 601LI (hepatitis E virus, UniProt P29326 394-600); experiment: WB
T1 chain: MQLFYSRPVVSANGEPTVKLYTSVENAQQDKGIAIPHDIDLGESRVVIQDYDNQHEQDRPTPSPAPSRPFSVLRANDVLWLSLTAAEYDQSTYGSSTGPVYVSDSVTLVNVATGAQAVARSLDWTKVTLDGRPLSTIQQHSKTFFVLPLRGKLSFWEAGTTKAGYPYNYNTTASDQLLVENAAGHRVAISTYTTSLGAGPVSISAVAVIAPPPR

NE2 mutant 601LE = biological target: T2, NE2 mutant 601LE (hepatitis E virus, UniProt P29326 394-600); experiment: WB
T2 construct: position counted on HEV ORF2
T2 chain: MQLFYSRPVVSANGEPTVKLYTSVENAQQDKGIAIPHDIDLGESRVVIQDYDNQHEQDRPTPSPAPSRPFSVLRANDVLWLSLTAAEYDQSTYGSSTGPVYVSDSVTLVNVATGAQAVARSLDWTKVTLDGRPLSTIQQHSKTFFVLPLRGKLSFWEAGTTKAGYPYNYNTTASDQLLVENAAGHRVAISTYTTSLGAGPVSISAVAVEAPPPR

NE2 mutant 602AE = biological target: T3, NE2 mutant 602AE (hepatitis E virus, UniProt P29326 394-601); experiment: Western blot of NE2 mutant proteins with monoclonal antibody 16D7
T3 construct: position counted on HEV ORF2
T3 chain: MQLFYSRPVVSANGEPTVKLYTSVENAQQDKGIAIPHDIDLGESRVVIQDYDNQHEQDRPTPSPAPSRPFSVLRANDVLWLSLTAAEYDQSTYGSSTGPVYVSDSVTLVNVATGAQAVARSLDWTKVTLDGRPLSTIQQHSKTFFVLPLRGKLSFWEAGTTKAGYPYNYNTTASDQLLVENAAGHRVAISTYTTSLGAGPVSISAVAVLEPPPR

NE2 mutant 600VE = biological target: T4, NE2 mutant 600VE (hepatitis E virus, UniProt P29326 394-599); experiment: as above
T4 construct: position counted on HEV ORF2
T4 chain: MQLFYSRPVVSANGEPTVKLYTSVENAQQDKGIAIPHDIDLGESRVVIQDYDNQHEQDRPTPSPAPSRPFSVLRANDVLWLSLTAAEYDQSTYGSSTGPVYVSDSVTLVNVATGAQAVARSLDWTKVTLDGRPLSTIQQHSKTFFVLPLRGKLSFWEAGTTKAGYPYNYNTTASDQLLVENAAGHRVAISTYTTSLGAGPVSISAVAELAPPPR

NE2 mutant 597AE = biological target: T5, NE2 mutant 597AE (hepatitis E virus, UniProt P29326 394-603); experiment: as above
T5 construct: position counted on HEV ORF2
T5 chain: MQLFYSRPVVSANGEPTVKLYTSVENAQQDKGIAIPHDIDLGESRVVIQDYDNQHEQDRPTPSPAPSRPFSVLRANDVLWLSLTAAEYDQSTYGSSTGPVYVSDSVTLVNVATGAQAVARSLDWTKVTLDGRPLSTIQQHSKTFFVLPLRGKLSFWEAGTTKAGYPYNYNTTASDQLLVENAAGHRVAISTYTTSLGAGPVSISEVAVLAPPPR

NE2 mutant 601LD = biological target: T6, NE2 mutant 601LD (hepatitis E virus, UniProt P29326 394-600); experiment: as above
T6 construct: position counted on HEV ORF2
T6 chain: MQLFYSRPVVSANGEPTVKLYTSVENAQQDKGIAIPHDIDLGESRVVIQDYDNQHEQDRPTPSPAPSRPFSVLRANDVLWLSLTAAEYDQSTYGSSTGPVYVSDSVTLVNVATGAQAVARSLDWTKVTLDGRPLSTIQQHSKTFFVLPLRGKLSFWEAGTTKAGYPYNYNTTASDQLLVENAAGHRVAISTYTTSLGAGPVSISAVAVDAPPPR

NE2 mutant 598VE = biological target: T7, NE2 mutant 598VE (hepatitis E virus, UniProt P29326 394-603); experiment: as above
T7 construct: position counted on HEV ORF2
T7 chain: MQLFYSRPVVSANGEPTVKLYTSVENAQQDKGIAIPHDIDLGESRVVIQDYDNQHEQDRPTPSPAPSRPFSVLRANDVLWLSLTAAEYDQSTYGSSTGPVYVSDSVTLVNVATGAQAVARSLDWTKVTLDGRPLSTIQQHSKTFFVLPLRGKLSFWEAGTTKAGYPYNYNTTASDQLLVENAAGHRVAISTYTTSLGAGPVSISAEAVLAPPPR

NE2 mutant 601LK = biological target: T8, NE2 mutant 601LK (hepatitis E virus, UniProt P29326 394-600); experiment: as above
T8 construct: position counted on HEV ORF2
T8 chain: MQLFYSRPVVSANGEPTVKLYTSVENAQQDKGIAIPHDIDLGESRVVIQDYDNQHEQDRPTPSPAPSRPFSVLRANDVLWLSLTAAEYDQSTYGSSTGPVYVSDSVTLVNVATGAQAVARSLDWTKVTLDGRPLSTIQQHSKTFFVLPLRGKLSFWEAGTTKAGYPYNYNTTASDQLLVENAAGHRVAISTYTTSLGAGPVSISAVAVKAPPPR

NE2 mutant 601LH = biological target: T9, NE2 mutant 601LH (hepatitis E virus, UniProt P29326 394-600); experiment: as above
T9 construct: position counted on HEV ORF2
T9 chain: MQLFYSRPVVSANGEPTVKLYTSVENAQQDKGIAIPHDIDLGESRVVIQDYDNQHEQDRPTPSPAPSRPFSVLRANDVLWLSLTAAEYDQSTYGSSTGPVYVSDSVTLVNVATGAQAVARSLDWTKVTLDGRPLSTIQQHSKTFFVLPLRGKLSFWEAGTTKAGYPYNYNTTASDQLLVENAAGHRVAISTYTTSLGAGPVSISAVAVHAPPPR

NE2 mutant 599AE = biological target: T10, NE2 mutant 599AE (hepatitis E virus, UniProt P29326 394-603); experiment: as above
T10 construct: position counted on HEV ORF2
T10 chain: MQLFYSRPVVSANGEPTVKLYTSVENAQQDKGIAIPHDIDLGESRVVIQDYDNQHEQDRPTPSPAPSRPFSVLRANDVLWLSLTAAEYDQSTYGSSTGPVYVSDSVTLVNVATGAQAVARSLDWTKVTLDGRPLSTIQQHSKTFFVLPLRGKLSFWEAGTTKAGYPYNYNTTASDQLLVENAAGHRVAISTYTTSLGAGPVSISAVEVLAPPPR

Measured: binding result

B1: monoclonal antibody 16D7 (antibody, V domains shown)
VH: EVQLQQSGPELVKPGASVKMSCKASGYKFTSYVMHWVKQKPGQGLEWIGYINPSNDNIKYNEKFKGKAILTLDKSSSTAYMAFSSLTSEDSAVYYCATLTGVDYWGQGTTLTVSS
VL: DVVMTQTPLSLSVTIGQPASISCKSSQSLLYRNGKIYLNWLQQRPGQAPKHLMSQVSKLDPGIPDRFSGSGSETDFTLKISRVEAEDLGVYYCLQGTHYPYTFGGGTKLEIKR
notes: also called MAb 16D7; HRP-16D7
binds: NE2 mutant 601LI | NE2 mutant 601LE | NE2 mutant 602AE | NE2 mutant 600VE | NE2 mutant 597AE | NE2 mutant 601LD | NE2 mutant 598VE | NE2 mutant 601LK | NE2 mutant 601LH | NE2 mutant 599AE
